From publication PMC2816707

How the values were obtained:
[1] = molecular target: Recombinant human VEGF165 (human) (UniProt P15692); test: ELISA; inhibition of VEGF/VEGFR-2 interaction
Bevacizumab = test: ELISA; conditions: point at the highest antibody concentration, about 13.3 nM (read from x axis); VEGF captured on ELISA plate; parent: est. 0.86; read off a plot
humanized EBV321 = test: ELISA; conditions: point at the highest antibody concentration, about 13.3 nM (read from x axis); VEGF captured on ELISA plate; parent: est. 0.66; read off a plot

Chain of rabbit IgG Fc-hVEGF (human VEGF165) fusion protein, wild type (from UniProt P15692-4) G88A (P15692 whole entry, looked up, stated change not applied, the tested form may be a part): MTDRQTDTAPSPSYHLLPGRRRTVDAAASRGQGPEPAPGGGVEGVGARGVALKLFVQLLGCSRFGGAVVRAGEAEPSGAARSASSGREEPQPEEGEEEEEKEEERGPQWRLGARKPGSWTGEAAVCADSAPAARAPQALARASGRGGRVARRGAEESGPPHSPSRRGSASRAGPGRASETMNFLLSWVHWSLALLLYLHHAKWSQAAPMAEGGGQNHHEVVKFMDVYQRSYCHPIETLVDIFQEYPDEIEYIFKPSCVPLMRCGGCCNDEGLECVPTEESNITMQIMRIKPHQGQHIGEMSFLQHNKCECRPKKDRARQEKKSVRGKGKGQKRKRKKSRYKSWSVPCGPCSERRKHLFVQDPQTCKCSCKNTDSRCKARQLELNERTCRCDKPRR
Chain of rabbit IgG Fc-hVEGF (human VEGF165) fusion protein, wild type (from UniProt P15692-4) I46A (P15692 whole entry, looked up, stated change not applied, the tested form may be a part): as above
Chain of rabbit IgG Fc-hVEGF (human VEGF165) fusion protein, wild type (from UniProt P15692-4) G88A; Q89A (P15692 whole entry, looked up, stated change not applied, the tested form may be a part): as above
Chain of Recombinant human VEGF165 (human) (P15692 other isoform, or with tags, fused parts or gaps): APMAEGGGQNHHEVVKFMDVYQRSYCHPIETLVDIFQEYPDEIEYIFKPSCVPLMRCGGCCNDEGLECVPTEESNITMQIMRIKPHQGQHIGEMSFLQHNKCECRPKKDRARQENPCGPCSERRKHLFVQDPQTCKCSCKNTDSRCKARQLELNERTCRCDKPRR

Row | IC50 [1] | response (Bevacizumab) | response (humanized EBV321) | Substance
1 | 0.893 nM | – | – | Bevacizumab
2 | – | 0.57 OD (405nm) | – | rabbit IgG Fc-hVEGF (human VEGF165) fusion protein, wild type (from UniProt P15692-4) G88A
3 | – | 0.13 OD (405nm) | 0.76 OD (405nm) | rabbit IgG Fc-hVEGF (human VEGF165) fusion protein, wild type (from UniProt P15692-4) G88A; Q89A
4 | – | 0.88 OD (405nm) | – | rabbit IgG Fc-hVEGF (human VEGF165) fusion protein, wild type (from UniProt P15692-4) I46A
